According to publication doi:10.1101/2022.11.18.516900v2:
Changes are numbered by the printed parent chain. In names and notes the source's numbering stands.

B1: hMfr (Mycolicibacterium hassiacum DSM 44199) (protein)
chain: MTLNTIALELVPPNSDGPDGGREQAVEDARKVLRCAAETGLAGRIGHVMIPGMIEEDPDRPIPMKPKMDVLDFWTIIRPELPGIRGLCTQVTAFLDEPALRRRLGDLSAAGFDGIAFVGVPRTMNDGEGHGVAPTDALSMFADLVPNRGAILIPTRDGEQGRFEFKCERGATYGMTQLLYSDAIVGFLREFARRTDHRPEILLSFGFVPKLEAKVGLINWLIQDPGNPAVAAEQEFVRRLAGLEPADKRKLMVDLYKRVIDGVADLGFPLSVHLEATYGVSVPAFETFAEMLAYWSPGQG
B2: hMfr (Mycolicibacterium hassiacum DSM 44199; E9Q) (protein)
chain: B1 chain with E9Q

Tests used:
purified protein [1] = substrate: NC(=O)C1=CN([C@@H]2O[C@H](COP(=O)(O)OP(=O)(O)OC[C@H]3O[C@@H](n4cnc5c(N)ncnc54)[C@H](O)[C@@H]3O)[C@@H](O)[C@H]2O)C=CC1; assay: purified protein; settings: 300 μM methylene-H4F, 100 mM Mops/NaOH pH 7.0, 40 °C, under N2
purified protein [2] = substrate: Nc1nc2c(c(=O)[nH]1)N1CN(c3ccc(C(=O)N[C@@H](CCC(=O)O)C(=O)O)cc3)C[C@H]1CN2; assay: purified protein; settings: 100 μM NADH, 100 mM Mops/NaOH pH 7.0, 40 °C, under N2

Protein	Km (purified protein [1]) [µM]	kcat (purified protein [1]) [s⁻¹]	Km (purified protein [2]) [µM]	kcat (purified protein [2]) [s⁻¹]
B1	16 ± 3	9 ± 0.383	160 ± 62	9.83 ± 1.42
B2	44 ± 13	0.0183 ± 0.0017	250 ± 59	0.0217 ± 0.0017
